{"source": "patent US20130022541A1", "binders": {"B1": {"name": "hL243γ4P (anti-HLA-DR) (antibody, from a related filing, V domains shown)", "VH": "QVQLQQSGSELKKPGASVKVSCKASGFTFTNYGMNWVKQAPGQGLKWMGWINTYTREPTYADDFKGRFAFSLDTSVSTAYLQISSLKADDTAVYFCARDITAVVPTGFDYWGQGSLVTVSS", "VL": "DIQLTQSPSSLSASVGDRVTITCRASENIYSNLAWYRQKPGKAPKLLVFAASNLADGVPSRFSGSGSGTDYTFTISSLQPEDIATYYCQHFWTTPWAFGGGTKLQIKR"}}, "key": {"HLA-DR [1]": {"molecular_target": "HLA-DR", "assay": "flow cytometry, surface, Capan cells + IFN-γ"}, "HLA-DR [2]": {"molecular_target": "HLA-DR", "assay": "flow cytometry, surface, HT29 cells"}, "HLA-DR [3]": {"molecular_target": "HLA-DR", "assay": "flow cytometry, surface, Panc-1 cells"}, "HLA-DR [4]": {"molecular_target": "HLA-DR", "assay": "flow cytometry, surface, HT29 cells + IFN-γ"}, "HLA-DR [5]": {"molecular_target": "HLA-DR", "assay": "flow cytometry, surface, LS174T cells + IFN-γ"}, "HLA-DR [6]": {"molecular_target": "HLA-DR", "assay": "flow cytometry, permeabilized (cytoplasmic), Aspc-1 cells"}, "HLA-DR [7]": {"molecular_target": "HLA-DR", "assay": "flow cytometry, permeabilized (cytoplasmic), BxPC-3 cells + IFN-γ"}, "HLA-DR [8]": {"molecular_target": "HLA-DR", "assay": "flow cytometry, permeabilized (cytoplasmic), Capan cells + IFN-γ"}, "HLA-DR [9]": {"molecular_target": "HLA-DR", "assay": "flow cytometry, permeabilized (cytoplasmic), RL cells"}, "HLA-DR [10]": {"molecular_target": "HLA-DR", "assay": "flow cytometry, surface, CAG cells"}, "HLA-DR [11]": {"molecular_target": "HLA-DR", "assay": "flow cytometry, surface, KMS11 cells"}, "HLA-DR [12]": {"molecular_target": "HLA-DR", "assay": "flow cytometry, permeabilized (cytoplasmic), KMS11 cells + IFN-γ"}, "HLA-DR [13]": {"molecular_target": "HLA-DR", "assay": "flow cytometry, surface, Moser cells"}, "HLA-DR [14]": {"molecular_target": "HLA-DR", "assay": "flow cytometry, surface, KMS11 cells + IFN-γ"}, "HLA-DR [15]": {"molecular_target": "HLA-DR", "assay": "flow cytometry, surface, BxPC-3 cells"}, "HLA-DR [16]": {"molecular_target": "HLA-DR", "assay": "flow cytometry, permeabilized (cytoplasmic), BxPC-3 cells"}, "HLA-DR [17]": {"molecular_target": "HLA-DR", "assay": "flow cytometry, permeabilized (cytoplasmic), KMS11 cells"}, "HLA-DR [18]": {"molecular_target": "HLA-DR", "assay": "flow cytometry, surface, Aspc-1 cells + IFN-γ"}, "HLA-DR [19]": {"molecular_target": "HLA-DR", "assay": "flow cytometry, permeabilized (cytoplasmic), TU118 cells"}, "HLA-DR [20]": {"molecular_target": "HLA-DR", "assay": "flow cytometry, permeabilized (cytoplasmic), Aspc-1 cells + IFN-γ"}, "HLA-DR [21]": {"molecular_target": "HLA-DR", "assay": "flow cytometry, permeabilized (cytoplasmic), Lovo cells + IFN-γ"}, "HLA-DR [22]": {"molecular_target": "HLA-DR", "assay": "flow cytometry, permeabilized (cytoplasmic), CAG cells"}, "HLA-DR [23]": {"molecular_target": "HLA-DR", "assay": "flow cytometry, permeabilized (cytoplasmic), Panc-1 cells"}, "HLA-DR [24]": {"molecular_target": "HLA-DR", "assay": "flow cytometry, permeabilized (cytoplasmic), TU118 cells + IFN-γ"}, "HLA-DR [25]": {"molecular_target": "HLA-DR", "assay": "flow cytometry, permeabilized (cytoplasmic), Capan-1 cells"}, "HLA-DR [26]": {"molecular_target": "HLA-DR", "assay": "flow cytometry, surface, Lovo cells"}, "HLA-DR [27]": {"molecular_target": "HLA-DR", "assay": "flow cytometry, surface, LS174T cells"}, "HLA-DR [28]": {"molecular_target": "HLA-DR", "assay": "flow cytometry, permeabilized (cytoplasmic), LS174T cells + IFN-γ"}, "HLA-DR [29]": {"molecular_target": "HLA-DR", "assay": "flow cytometry, surface, CAG cells + IFN-γ"}, "HLA-DR [30]": {"molecular_target": "HLA-DR", "assay": "flow cytometry, surface, Panc-1 cells + IFN-γ"}, "HLA-DR [31]": {"molecular_target": "HLA-DR", "assay": "flow cytometry, surface, Capan-1 cells"}, "HLA-DR [32]": {"molecular_target": "HLA-DR", "assay": "flow cytometry, permeabilized (cytoplasmic), Lovo cells"}, "HLA-DR [33]": {"molecular_target": "HLA-DR", "assay": "flow cytometry, permeabilized (cytoplasmic), U87 cells"}, "HLA-DR [34]": {"molecular_target": "HLA-DR", "assay": "flow cytometry, permeabilized (cytoplasmic), CAG cells + IFN-γ"}, "HLA-DR [35]": {"molecular_target": "HLA-DR", "assay": "flow cytometry, permeabilized (cytoplasmic), LS174T cells"}, "HLA-DR [36]": {"molecular_target": "HLA-DR", "assay": "flow cytometry, surface, Lovo cells + IFN-γ"}, "HLA-DR [37]": {"molecular_target": "HLA-DR", "assay": "flow cytometry, permeabilized (cytoplasmic), HT29 cells"}, "HLA-DR [38]": {"molecular_target": "HLA-DR", "assay": "flow cytometry, permeabilized (cytoplasmic), U87 cells + IFN-γ"}, "HLA-DR [39]": {"molecular_target": "HLA-DR", "assay": "flow cytometry, surface, U118 cells"}, "HLA-DR [40]": {"molecular_target": "HLA-DR", "assay": "flow cytometry, surface, TU118 cells + IFN-γ"}, "HLA-DR [41]": {"molecular_target": "HLA-DR", "assay": "flow cytometry, permeabilized (cytoplasmic), U118 cells + IFN-γ"}, "HLA-DR [42]": {"molecular_target": "HLA-DR", "assay": "flow cytometry, surface, TU118 cells"}, "HLA-DR [43]": {"molecular_target": "HLA-DR", "assay": "flow cytometry, permeabilized (cytoplasmic), Panc-1 cells + IFN-γ"}, "HLA-DR [44]": {"molecular_target": "HLA-DR", "assay": "flow cytometry, permeabilized (cytoplasmic), HT29 cells + IFN-γ"}, "HLA-DR [45]": {"molecular_target": "HLA-DR", "assay": "flow cytometry, surface, U87 cells + IFN-γ"}, "HLA-DR [46]": {"molecular_target": "HLA-DR", "assay": "flow cytometry, surface, FSCCL cells + IFN-γ"}, "HLA-DR [47]": {"molecular_target": "HLA-DR", "assay": "flow cytometry, permeabilized (cytoplasmic), Moser cells + IFN-γ"}, "HLA-DR [48]": {"molecular_target": "HLA-DR", "assay": "flow cytometry, permeabilized (cytoplasmic), Moser cells"}, "HLA-DR [49]": {"molecular_target": "HLA-DR", "assay": "flow cytometry, surface, U87 cells"}, "HLA-DR [50]": {"molecular_target": "HLA-DR", "assay": "flow cytometry, surface, FSCCL cells"}, "HLA-DR [51]": {"molecular_target": "HLA-DR", "assay": "flow cytometry, permeabilized (cytoplasmic), FSCCL cells + IFN-γ"}, "HLA-DR [52]": {"molecular_target": "HLA-DR", "assay": "flow cytometry, permeabilized (cytoplasmic), U118 cells"}, "HLA-DR [53]": {"molecular_target": "HLA-DR", "assay": "flow cytometry, surface, RL cells"}, "HLA-DR [54]": {"molecular_target": "HLA-DR", "assay": "flow cytometry, surface, Moser cells + IFN-γ"}, "HLA-DR [55]": {"molecular_target": "HLA-DR", "assay": "flow cytometry, surface, Aspc-1 cells"}, "HLA-DR [56]": {"molecular_target": "HLA-DR", "assay": "flow cytometry, surface, BxPC-3 cells + IFN-γ"}, "HLA-DR [57]": {"molecular_target": "HLA-DR", "assay": "flow cytometry, permeabilized (cytoplasmic), FSCCL cells"}, "HLA-DR [58]": {"molecular_target": "HLA-DR", "assay": "flow cytometry, surface, U118 cells + IFN-γ"}, "HLA-DR [59]": {"molecular_target": "HLA-DR", "assay": "flow cytometry, surface, RL cells + IFN-γ"}, "HLA-DR [60]": {"molecular_target": "HLA-DR", "assay": "flow cytometry, permeabilized (cytoplasmic), RL cells + IFN-γ"}}, "data": [{"binder": "B1", "values": [{"measurement": "flow cytometry fluorescence", "setting": "HLA-DR [1]", "result": 66.2}, {"measurement": "flow cytometry fluorescence", "setting": "HLA-DR [2]", "result": 3.3}, {"measurement": "flow cytometry fluorescence", "setting": "HLA-DR [3]", "result": 4.3}, {"measurement": "flow cytometry fluorescence", "setting": "HLA-DR [4]", "result": 298}, {"measurement": "flow cytometry fluorescence", "setting": "HLA-DR [5]", "result": 4.7}, {"measurement": "flow cytometry fluorescence", "setting": "HLA-DR [6]", "result": 11}, {"measurement": "flow cytometry fluorescence", "setting": "HLA-DR [7]", "result": 130}, {"measurement": "flow cytometry fluorescence", "setting": "HLA-DR [8]", "result": 253}, {"measurement": "flow cytometry fluorescence", "setting": "HLA-DR [9]", "result": 1060}, {"measurement": "flow cytometry fluorescence", "setting": "HLA-DR [10]", "result": 1930}, {"measurement": "flow cytometry fluorescence", "setting": "HLA-DR [11]", "result": 677}, {"measurement": "flow cytometry fluorescence", "setting": "HLA-DR [12]", "result": 927}, {"measurement": "flow cytometry fluorescence", "setting": "HLA-DR [13]", "result": 4}, {"measurement": "flow cytometry fluorescence", "setting": "HLA-DR [14]", "result": 665}, {"measurement": "flow cytometry fluorescence", "setting": "HLA-DR [15]", "result": 2.3}, {"measurement": "flow cytometry fluorescence", "setting": "HLA-DR [16]", "result": 14.2}, {"measurement": "flow cytometry fluorescence", "setting": "HLA-DR [17]", "result": 879}, {"measurement": "flow cytometry fluorescence", "setting": "HLA-DR [18]", "result": 15.2}, {"measurement": "flow cytometry fluorescence", "setting": "HLA-DR [19]", "result": 23.6}, {"measurement": "flow cytometry fluorescence", "setting": "HLA-DR [20]", "result": 73.6}, {"measurement": "flow cytometry fluorescence", "setting": "HLA-DR [21]", "result": 989}, {"measurement": "flow cytometry fluorescence", "setting": "HLA-DR [22]", "result": 2320}, {"measurement": "flow cytometry fluorescence", "setting": "HLA-DR [23]", "result": 22.7}, {"measurement": "flow cytometry fluorescence", "setting": "HLA-DR [24]", "result": 215}, {"measurement": "flow cytometry fluorescence", "setting": "HLA-DR [25]", "result": 11.6}, {"measurement": "flow cytometry fluorescence", "setting": "HLA-DR [26]", "result": 7.3}, {"measurement": "flow cytometry fluorescence", "setting": "HLA-DR [27]", "result": 5.3}, {"measurement": "flow cytometry fluorescence", "setting": "HLA-DR [28]", "result": 42.3}, {"measurement": "flow cytometry fluorescence", "setting": "HLA-DR [29]", "result": 1810}, {"measurement": "flow cytometry fluorescence", "setting": "HLA-DR [30]", "result": 4.7}, {"measurement": "flow cytometry fluorescence", "setting": "HLA-DR [31]", "result": 5.5}, {"measurement": "flow cytometry fluorescence", "setting": "HLA-DR [32]", "result": 32.5}, {"measurement": "flow cytometry fluorescence", "setting": "HLA-DR [33]", "result": 102}, {"measurement": "flow cytometry fluorescence", "setting": "HLA-DR [34]", "result": 2420}, {"measurement": "flow cytometry fluorescence", "setting": "HLA-DR [35]", "result": 23.4}, {"measurement": "flow cytometry fluorescence", "setting": "HLA-DR [36]", "result": 276}, {"measurement": "flow cytometry fluorescence", "setting": "HLA-DR [37]", "result": 9.1}, {"measurement": "flow cytometry fluorescence", "setting": "HLA-DR [38]", "result": 429}, {"measurement": "flow cytometry fluorescence", "setting": "HLA-DR [39]", "result": 6.1}, {"measurement": "flow cytometry fluorescence", "setting": "HLA-DR [40]", "result": 93.5}, {"measurement": "flow cytometry fluorescence", "setting": "HLA-DR [41]", "result": 352}, {"measurement": "flow cytometry fluorescence", "setting": "HLA-DR [42]", "result": 5.08}, {"measurement": "flow cytometry fluorescence", "setting": "HLA-DR [43]", "result": 64.1}, {"measurement": "flow cytometry fluorescence", "setting": "HLA-DR [44]", "result": 638}, {"measurement": "flow cytometry fluorescence", "setting": "HLA-DR [45]", "result": 172}, {"measurement": "flow cytometry fluorescence", "setting": "HLA-DR [46]", "result": 1610}, {"measurement": "flow cytometry fluorescence", "setting": "HLA-DR [47]", "result": 40.5}, {"measurement": "flow cytometry fluorescence", "setting": "HLA-DR [48]", "result": 18.2}, {"measurement": "flow cytometry fluorescence", "setting": "HLA-DR [49]", "result": 41.9}, {"measurement": "flow cytometry fluorescence", "setting": "HLA-DR [50]", "result": 1090}, {"measurement": "flow cytometry fluorescence", "setting": "HLA-DR [51]", "result": 2520}, {"measurement": "flow cytometry fluorescence", "setting": "HLA-DR [52]", "result": 24.6}, {"measurement": "flow cytometry fluorescence", "setting": "HLA-DR [53]", "result": 750}, {"measurement": "flow cytometry fluorescence", "setting": "HLA-DR [54]", "result": 8.5}, {"measurement": "flow cytometry fluorescence", "setting": "HLA-DR [55]", "result": 3.2}, {"measurement": "flow cytometry fluorescence", "setting": "HLA-DR [56]", "result": 43.8}, {"measurement": "flow cytometry fluorescence", "setting": "HLA-DR [57]", "result": 1470}, {"measurement": "flow cytometry fluorescence", "setting": "HLA-DR [58]", "result": 197}, {"measurement": "flow cytometry fluorescence", "setting": "HLA-DR [59]", "result": 862}, {"measurement": "flow cytometry fluorescence", "setting": "HLA-DR [60]", "result": 1180}]}]}
